Measurements from the supplement of paper PMC12338614.
± gives the uncertainty stated by the source.

B1: library; numbered along this chain (parent)
chain: MEVVDPQQLGMFTEGELMSVGMDTFIHRIDSTEVIYQPRRKRAKLIGKYLMGDLLGEGSYGKVKEVLDSETLCRRAVKILKKKKLRRIPNGEANVKKEIQLLRRLRHKNVIQLVDVLYNEEKQKMYMVMEYCVCGMQEMLDSVPEKRFPVCQAHGYFCQLIDGLEYLHSQGIVHKDIKPGNLLLTTGGTLKISDLGVAEALHPFAADDTCRTSQGSPAFQPPEIANGLDTFSGFKVDIWSAGVTLYNITTGLYPFEGDNIYKLFENIGKGSYAIPGDCGPPLSDLLKGMLEYEPAKRFSIRQIRQHSWFRKKHPPAEAPVPIPPSPDTKDRWRSMTVVPYLEDLHGADEDEDLFDIEDDIIYTQDFTVPGQVPEEEASHNGQRRGLPKAVCMNGTEAAQLSTKSRAEGRAPNPARKACSASSKIRRLSACKQQ

Variants of: B1
Test: STK11 functional score (HeLa growth suppression), rescaled enrichment; synonymous median = 1, nonsense median = 0 (normalised score)
Conditions: with HeLa; variant type: missense
Summary of the method: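 HeLa cells carrying an AAVS1 landing pad received codon-optimised STK11 libraries made by codon randomisation (POPCode), integrated by Bxb1, with three regions each transfected three times. Integrants that were BFP-negative and mCherry-positive were sorted by FACS 4–5 days after electroporation and then grown for about two weeks. Tiled amplicons from gDNA were sequenced on NextSeq at ~2 million reads per tile. The functional score is a wild-type-corrected log ratio of post- to pre-selection counts, rescaled to the synonymous and nonsense medians, merged across codons and replicate transfections, and given a bootstrapped error.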

| Variant | STK11 functional score |
| --- | --- |
| F234Y | 0.805 ± 0.64 |
| L113G | 0.252 ± 0.13 |
| L113D | -0.168 ± 0.12 |
| V337W | 0.54 ± 0.15 |
| K81Y | 1.29 ± 0.37 |
| K81W | 0.565 ± 0.079 |
| E291W | 1.35 ± 0.12 |
| E291F | 0.825 ± 0.25 |
| E291T | 1.15 ± 0.44 |
| E16S | 1.39 ± 0.17 |
| Q220Y | 1.33 ± 0.15 |
| E2K | 1.16 ± 0.78 |
| A225S | 1.06 ± 0.29 |
| D258S | 1.42 ± 0.44 |
| L182I | 1.56 ± 0.16 |
| L182R | 0.129 ± 0.17 |
| D23G | 1.54 ± 0.2 |
| R409T | 1.47 ± 0.28 |
| R409E | 1.57 ± 0.19 |
| P413S | 1.46 ± 0.27 |
| D194S | -0.236 ± 0.11 |
| S216E | -0.148 ± 0.092 |
| F255A | 1.31 ± 0.29 |
| K124N | 1.27 ± 0.36 |

| Variant | STK11 functional score |
| --- | --- |
| R310Y | 1.53 ± 0.17 |
| R310G | 0.764 ± 0.2 |
| R310C | 1.06 ± 0.17 |
| P179D | -0.213 ± 0.11 |
| S69W | 0.118 ± 0.084 |
| G56V | 0.273 ± 0.08 |
| L341N | 1.52 ± 0.19 |
| A398S | 1.16 ± 0.25 |
| M11L | 1.52 ± 0.23 |
| D53C | 1.1 ± 0.3 |
| P315V | 1.17 ± 0.18 |
| P315E | 1.57 ± 0.26 |
| P280M | 1.04 ± 0.38 |
| Y156A | 0.114 ± 0.64 |
| M392V | 1.51 ± 0.23 |
| M392D | 1.19 ± 0.45 |
| A273K | 0.589 ± 0.23 |
| A273T | 1.46 ± 0.34 |
| A273F | 0.993 ± 0.43 |
| A273L | 0.931 ± 0.1 |
| S401K | 1.44 ± 0.28 |
| S401A | 1.54 ± 0.33 |
| C73R | 1.21 ± 0.15 |
| E57A | 1.15 ± 0.13 |

| Variant | STK11 functional score |
| --- | --- |
| E57P | 1.62 ± 0.32 |
| L140W | -0.107 ± 0.081 |
| I361T | 1.58 ± 0.47 |
| F366A | 0.753 ± 0.65 |
| F366D | 1.6 ± 0.14 |
| Q382F | 1.14 ± 0.28 |
| S325Y | 0.029 ± 0.42 |
| K122F | 1.25 ± 0.21 |
| E349R | 1.37 ± 0.15 |
| K41I | 0.844 ± 0.095 |
| K41Q | 0.893 ± 0.4 |
| K41G | 1.25 ± 0.13 |
| P281Y | 1.38 ± 0.23 |
| A429K | 1.49 ± 0.27 |
| N266V | 0.844 ± 0.18 |
| N266W | 0.574 ± 0.1 |
| L252S | 1.5 ± 0.22 |
| G61A | 1.35 ± 0.32 |
| E98G | 0.397 ± 0.099 |
| A43Y | 1.67 ± 0.16 |
| K312C | 1.17 ± 0.52 |
| P222C | 0.773 ± 0.62 |
| P222N | 1.61 ± 0.13 |
| K82H | 1.08 ± 0.22 |

| Variant | STK11 functional score |
| --- | --- |
| K82A | 1.43 ± 0.15 |
| S232I | 1.4 ± 0.18 |
| E357A | 1.12 ± 0.49 |
| V320W | 0.717 ± 0.091 |
| L167I | 1.44 ± 0.25 |
| K287L | 0.865 ± 0.14 |
| G270V | 1.26 ± 0.25 |
| P149C | 0.957 ± 0.33 |
| Q112S | 1.1 ± 0.35 |
| P217E | 0.536 ± 0.41 |
| L286R | -0.117 ± 0.22 |
| D115L | 1.19 ± 0.091 |
| D115N | 1.65 ± 0.37 |
| I35A | 1.43 ± 0.11 |
| E351R | 1.26 ± 0.16 |
| L101R | 1.25 ± 0.2 |
| L101S | 1.43 ± 0.37 |
| L101Y | 1.21 ± 0.079 |
| Q37L | 1.15 ± 0.3 |
| A198V | 1.38 ± 0.19 |
| A198P | 0.974 ± 0.23 |
| A198I | -0.192 ± 0.12 |
| I79S | 0.761 ± 0.099 |
| I79Q | 1.51 ± 0.18 |

| Variant | STK11 functional score |
| --- | --- |
| E407R | 1.52 ± 0.15 |
| E317N | 1.6 ± 0.3 |
| G91P | 1.62 ± 0.19 |
| L55Q | 1.59 ± 0.43 |
| H154A | 1.49 ± 0.24 |
| H202W | 0.389 ± 0.18 |
| K403T | 1.19 ± 0.42 |
| I46L | 1.25 ± 0.14 |
| W332S | 1.21 ± 0.33 |
| D208C | 1.26 ± 0.38 |
| D208M | 1.7 ± 0.38 |
| Q7G | 0.637 ± 0.11 |
| G52I | 1.64 ± 0.2 |
| F264G | 1.01 ± 0.21 |
| L184G | 0.204 ± 0.079 |
| L184W | 0.145 ± 0.09 |
| N247A | 1.37 ± 0.11 |
| E33M | 1.44 ± 0.2 |
| G180Q | 1.64 ± 0.19 |
| G180T | 1.53 ± 0.19 |
| S193V | 0.77 ± 0.24 |
| N94I | 1.14 ± 0.21 |
| N94L | 0.89 ± 0.17 |
| N94E | 0.862 ± 0.32 |

| Variant | STK11 functional score |
| --- | --- |
| D284I | 1.14 ± 0.43 |
| A389D | 1.2 ± 0.4 |
| Q432Y | 1.63 ± 0.28 |
| R331H | -0.127 ± 0.098 |
| R331N | 1.35 ± 0.21 |
| S240H | 1.08 ± 0.12 |
| S240T | 1.07 ± 0.16 |
| S240C | 1.38 ± 0.098 |
| S240R | 0.823 ± 0.1 |
| S419D | 1.1 ± 0.4 |
| T209G | 1.36 ± 0.13 |
| L45N | 0.985 ± 0.86 |
| L45R | 1.18 ± 0.29 |
| L400D | 1.19 ± 0.3 |
| T186R | 1.11 ± 0.36 |
| T186H | 0.54 ± 0.59 |
| L386G | 1.19 ± 0.34 |
| L386N | 0.528 ± 0.64 |
| E130Y | 0.104 ± 0.12 |
| H306Y | 0.195 ± 0.17 |
| I303Q | 1.56 ± 0.24 |
| L290A | 0.0427 ± 0.076 |
| L290W | 0.691 ± 0.1 |
| D207P | 1.01 ± 0.7 |

| Variant | STK11 functional score |
| --- | --- |
| R426S | 1.5 ± 0.26 |
| E92C | 1.68 ± 0.18 |
| K329Y | 1.15 ± 0.096 |
| K329P | 1.47 ± 0.2 |
| S422F | 1.4 ± 0.44 |
| D229K | 0.652 ± 0.23 |
| E342K | 1.61 ± 0.47 |
| A295D | 1.21 ± 0.17 |
| P323Q | 0.422 ± 0.67 |
| K416H | 1.42 ± 0.19 |
| M136E | 0.000415 ± 0.084 |
| V133H | 1.47 ± 0.49 |
| E375R | 1.46 ± 0.21 |
| G227Q | 1.26 ± 0.45 |
| G227R | 0.588 ± 0.47 |
| H27V | 1.05 ± 0.12 |
| V150L | 0.401 ± 0.14 |
| V150S | 0.347 ± 0.13 |
| V143C | 1.26 ± 0.22 |
| V143A | 1.34 ± 0.084 |
| C391I | 1.07 ± 0.38 |
| C391E | 1.58 ± 0.28 |
| A347M | 1.54 ± 0.17 |
